The data set can be described thus: soluble on expression in E. coli; label from the status in PepcDB or PDB records.
With “MGSDKIHHHHHHMIGKFFASINLSDVAAMAGIPISFMTAYSISPEIEISFLEDIESGIMKVLKMYDVDFIGGDLKEGMDLILTGIAIGKQKKTLTRKRSDIGRKQMVAYTNKLGRAASGYIFYKSGYDSVEGINMMLGITPRLEEARIISEYGAKFMMDLSDGLYSSLNQMKADYGVGFKIVEDEVVYDDSARKAAEISGASVYDIACGYGGDYELLFTVPEENYRDFAQAMESNNIEVHFIGETWEGENIVFDGKTWTKMKDEGYEHFRPKPQLGEIR”, the “soluble on expression in E. coli” value was “not soluble”.

“MFNKLSTPIHIIGGGLAGCEASWQIAQSGIPVILHEMRPQKKSEAHKTGQLAELVCSNSFRSDDSSTNAVGLLHTEMRLAKSLIMKAADANKVPAGSALAVDRDGFSKTVTAALENHPLITIKREEIQEIPENWPHIIIATGPLTSPKLAKAIQTITGTEALSFFDAIAPIIYTDSINMDICWYQSRYDKIGPEGTGKDYLNCPLNKEQYEAFVQALKNAEKTEFRDFEKTPYFDGCLPIEVMAERGLETLRHGPMKPMGLTNAHNPTVKAYAVVQLRQDNKLGTLYNMVGFQTKLKYGEQVRIFRMIPGLENAEFARLGGLHRNTYLNSPIILDQTLRLKQRPGLRFAGQITGCEGYVESSAIGLLAGRFAAAEYHYNCPCLPPLTTALGLEHHHHHH”: the “soluble on expression in E. coli” value was “soluble”. For “MSLKKVNVTYALLYDKTKEKILMVKNKGKNGSYYTLPGGAVKLGETLEEAVIREVKEETGLHITVNGICYISEAFFEERGHHAIFFNFLGEIIGGETNITRPKEIEEITWMELHIASPHLRIPEHLVNMLKKKETVPYFFNGTIVHQSSEGHHHHHH”, the “soluble on expression in E. coli” value was “not soluble”.

For the sequence “MSSSESPAGIAQIGVTGLAVMGSNIARNFARHGYTVAVHNRSVAKTDALLKEHSSDGKFVRSETIPEFLAALEKPRRVLIMVKAGEATDADAVINELADAMEPGDIIIDGGNALYTDTMRREKAMRERGLHFVGAGISGGEEGALNGPSIMPGGPAESYQSLGPLLEEISAHVDGVPCCTHIGPDGSGHFVKMVHNGIEYSDMQLIGEAYQLMRDGLGLTAPAIADVFTEWNNGDLDSYLVEITAEVLRQTDAKTGKPLVDVIVDRAEQKGTGRWTVKSALDLGVPVTGIAEAVFARALSGSVGQRSAASGLASGKLGEQPADPATFTEDVRQALYASKIVAYAQGFNQIQAGSAEFGWDITPGDLATIWRGGCIIRAKFLNHIKEAFDASPNLASLIVAPYFRGAVESAIDSWRRVVSTAAQLGIPTPGFSSALSYYDALRTARLPAALTQAQRDFFGAHTYGRIDEPGKFHTLWSSDRTEVPV”, the “soluble on expression in E. coli” value is reported as “soluble”.

On to “GPGSMSLVESQKDMADLLPCNEECGGDYGRYSFGQTDTEVIVKVPLPSDTPTKMINVDVKVSSLTIGMKGQSPLISGDLYKPVKVDECTWCVEDKSVLVVTLVKTNAQYEEWWPCVTTNERQIDMKTFRPPSKHISELDDSARATIAKMMFDQRQKALNLPSSDELRLRELMQRGGTSN”, for which the “soluble on expression in E. coli” value is given as “soluble”. The same measure for “GMKTLCTHSLPKEKMPYLLRSGEGERYLFGRQVATVMANGRSTGDLFEIVLLSGGKGDAFPLHVHKDTHEGILVLDGKLELTLDGERYLLISGDYANIPAGTPHSYRMQSHRTRLVSYTMKGNVAHLYSVIGNPYDHAEHPPYASEEVSNERFAEAAAVADIVFLDEAKPACSAKLAELTELPDGAVPYVLESGEGDRLLTGDQLHRIVAAQKNTDGQFIVVSSEGPKGDRIVDHYHEYHTETFYCLEGQMTMWTDGQEIQLNPGDFLHVPANTVHSYRLDSHYTKMVGVLVPGLFEPFFRTLGDPYEGHIFPCEPQALRFDRILQNIEALDLKVMKP”: “soluble”. The value for “MGSDKIHHHHHHMDEKGLADCHTPTNGGNQKIKFVNEPNLYRIIFRSNKPEAKQFQDWVFNEVLPTIRKTGKYEAPKPVEKRNYLNNSDMNNIKRLIWTCADHFGHKGSFNQAIWACLRDVTGVPSPAKFEVEHLPVLAEEFKRILNIVQPFLDMQYECQTLLIKRVIRGRADHTVLQALLDNMRNAANQSDNQFKEALQKQLPAMFNQECLNLINRRPNHYDHYEYNERLI” was “not soluble”; that for “MSLRLRKDVLNYESRQKSDLLIPNSNSISIYNQIADKYSRKITREEIFSGIYFLRYFLLRNAKGDVLEVGSGPGTNFPFYKWKKINTLTLVEPAEKMREIADARAKKKVPPNVLYRQFADLRQLPPNQSYDTIIQTFCICSQEKAVEQLNNYRSLLRSDGRILLIEHGKGKYKFLNRILNAYAESHYESWGCVWNRDIEQLLEDSELTIDSCKRFNFGTTYVIEAHEGHHHHHH” was “not soluble”. Consider “MGSDKIHHHHHHMRFAPPNPLRIADRASGLNSLSVRSYNERLVLSLLLQNEATTRLEIGEKTGLSAQTISVIVRSLEQEGLVVRGEAQKGRVGPPTTPLMLNSEGAYSVGVSVGYHNTHIVVVDFIGNVQHHRVMPHKAADTFDAPEALALEIRLAVAGLSESRQARIAGVGLALPTPPIRSEPDHDVLHRYLEAEFGLPVFVQNDITAAAGGESLFGTARQLQDFLFFYLGARLHCRLVLNHQIYNGNSPLSYDVGVLALERRLPADSAMAEKLWGQDLSWPPLEATLADWQQACAENLIQLTQSLLQFIELRTVVLSSFVPAAICEALCRLVRQEIPSVNAVVGRTSAAPKAVGAASLPFSSRFMVN”, for which the “soluble on expression in E. coli” value is given as “not soluble”. The same measure for “MQPSFRIVADGTDVTQRLNDRLLKLTLLDKPGMESDSLTLRIDDRDGQVALPRRGAVLEVHLGYAGEPLMRMGRFTVDTLQWAGPPDCLTVTAKAGDMRGSGKTIRSGGWEGTTLAQVCRDVGARNGWRVECPLQVAIARVDQVNESDYHFVTRLARQYDCTAKLAEGMLMVLPRQSGQSATGRRIEPLVLGRADVGSFDVTFDDRSLMRTVKTRYQLPGSGEVKSVELKNPKAPATAMGEHVDRHLYTSRGEAEQAAKARLASFSRSSASVRLELPGRGDLFAERSLLLQGFKAGIDGEFLIDSVEHTYSSSGWTTVVQCNGGRGGKG”: “not soluble”.

“MTNSQTVSLIGPTQMAPQSTPPPPVNELWFIDAQAMFQNYANLRSFSKSNANEINTTIGGFVFGRKARKQVIHVLFAYAEDLTESNRQFLESSLSADIELVGNLNIDGQSQILPGGQFTLQLTSRMLENRSISEFLDMNVMFNNEHVLMEGASCVSRVGYEWSLRAGREQEDVKSAAERLSMASFRFTYLNAEHGLVIREQKPEAAQQKYLDKFSKGAVPYKDVIEFTAMQSLTRDTSNDTEDQKLVPTVKVTKDNKHFTRLVTIGEVVFPAFFGDSSLDLYKRSREAFNRRANNTMMVTVNGIRAGRGVTTTTSATYLPPGWVSLLHLQLPTKWTDNEQRNYRIRLHKLFNLPSSKPVLRLSQALALHSESARLTNKKLIREPHLSITNYQPVGEITTVNGPYNYHHYMQDGIDDSGWGCAYRSFQTIWSWFILNGYTDKPVPSHREIQQALVDIQDKQAKFVGSRQWIGSTEISFVLNELLKLECRFIATNSGAEVVERVRELARHFETSGTPVMIGGNMLAHTILGVDFNDTTGETKFLVLDPHYTGSEDIKTITSKGWCAWKPASFWSKDHFYNMVLPQPPSDAI”: the “soluble on expression in E. coli” value is on record as “not soluble”. The value for “MSLPAPQDPRNLPIRQQMEALIRRKQAEITQGLESIDTVKFHADTWTRGNDGGGGTSMVIQDGTTFEKGGVNVSVVYGQLSPAAVSAMKADHKNLRLPEDPKTGLPVTDGVKFFACGLSMVIHPVNPHAPTTHLNYRYFETWNQDGTPQTWWFGGGADLTPSYLYEEDGQLFHQLHKDALDKHDTALYPRFKKWCDEYFYITHRKETRGIGGIFFDDYDERDPQEILNMVEDCFDAFLPSYLTIVKRRKDMPYTKEEQQWQAIRRGRYVEFNLIYDRGTQFGLRTPGSRVESILMSLPEHASWLYNHHPAPGSREAKLLEVTTKPREWVKEGHHHHHH” was “soluble”; that for “GPGSMSSKEELAALMASDGDFEKKISLLKKAVVTVTKQKKEVEARQTQLQGELSTATQQLAEAQRANAALQRKVKSLEAQQEQERSSGSAFGQNMLKGLSSIMGNSDSANRGGARGERGSAGDRLSLSPEDVERLISENEQLHRQIYAFKTKLEDVQHSSAKDTERLKSEVARLQRETQELRRSLEANTATGDRLRADYLTERALGDFCRHFFVATLLRPQQERESFLTGTTVEVRWPAKGPSSNSAAAAFSDSLPAVVSERVTLALQSAAGTVKTLLRGVSVLAVVLQEQLPSRERATVGDLECLRDRLSVFLEAHTAKKDSLMYLLEQLDSQLSAVQHADEEGGSAPVSADAFVEAQGNIVQLVLEWVGLLRTQLPLLVESCVAILPHGNSYTMYTAHVSAGTGDGAAEPRKTTTERGEFVEEVTRHGYATLASIEGSLTAMRMLVERSPTAYYRCYNNGNRGGALPEPPTTKETLNFTSSLEATQPPMDLSSLLALQQFWWEGCTSVRSLRASILALNSGLVNVAEACNKSEIRDALNYLCKCLEAIAAASEEMYGSPRLAPADADAAIAALVPDALAPRTPAHAPPSEASSWALRPRTAIATSSTLTAEGVRDTAYADKYEELLVALSAADRAAASYYTQMNYLYVEMAEKEDALQTALEAVAHLQQLIVAERAEAKHTRQALQSQISLLSTQLVEMAGAPAAQTPQ” was “not soluble”. The same measure for “MGSDKIHHHHHHMTNTFSFDWAIAPETPDTFFAEYFEKKPMLIKRGQPGYFSDLLSYGEIDRVVSTMGLHVPEINVTRADGNITPADFAYETGQIDPVRVNQLHADGATVILSGLHERLPALARYCRAMEAAMSARVQTNIYMTPPGNQGFNPHYDGHDVLVLQVAGTKEWRIYGTPVELPLADQAFERGMDVGEEAQRFVLEPGDAVYIPRGMAHDAVATDETSLHITTGLMFRTWADALAEAVIAKAHREPSLRRALPPGFANNGVDLDDYKDTFAELIELVGDAHVGKLLSGFREEFLTARVPRVEGQMAQLAKLDGLTMDSRMGAHPHIVFGIHDVPNEDQVCLVAQGAEIILPAHARDAMEFCITTADFRLGDMEGDLDDAGKMVLAKRFVREGLMRVL”: “not soluble”. For “MGSDKIHHHHHHMKGLDYCRQKAEESRSSFLSGFRFLTQEKQDAVTVLYAFCRELDDVVDECSNPDVAQATLNWWRGDLDNAFGGAMPEHPVNQALRQVKETFKLPKYELEALIDGMQMDLVQARYGSFEELKLYCRRVAGVVGCLIARILGFSDGKTLEYADKMGLALQLTNIIRDVGEDARRGRIYLPMEEMQRFDVPASVILQCSPTGNFAELMAFQIKRARETYREAVSLLPDADKKAQKVGLVMAAVYYALLNEIDRDGAQNVLKYKIALPSPRKKRIALKTWLFGFKPRPGTPERA”, the “soluble on expression in E. coli” value is recorded as “not soluble”.

In the case of “MGSDKIHHHHHHMETIETVQRFLEHMAWYATPVPASAISFLAAGEYNENWRIRHEGRDEVLRVNHGSQLRFADQIGYEYAVLRAVHPSGVTPRALRVKSRPRHLSGGALLMEYLPGRPLDYRTDLEAAAHTFAAVHSVVVPRGCPLLRQPDPVADIAADGLRLIHRFPDHPRTDVRDALLRYHERVVRLGEDTRALFEGERQVIANTEVNSGNFLVHDGVARLVDWEKAVVTPRYQDLGHFLAPTTTLWKTDTVLDEADRRRFLAAYRDALTRLAGRETVADCHFDTTDTAEGVTHEAAFHTTAPDAPGGQPHGDMAPDVPDLDALAVRTDVLVRAVLLRGLAWCYMAWQEYATDRRPLAHPDTLRTIERYLAEVSWFLR”, the “soluble on expression in E. coli” value is listed as “not soluble”. The value for “MGEITQYSVSPALPAGLAIDPQTGVITGTPTAVTASAVYTVTGANSVDSVQALLTIEVAAVAVPPVGLVYVDRLPEYIVGVPITYNEPAYTGGEVTQFSISPALPAGLTLNTQSGVISGTPTVELAQTTFFITASNSAGLEHHHHHH” was “not soluble”; that for “HRWITRPKFTHFDLHTLNWDLCLTQANHKSNLALEMLKMLLDSLPETVEKIQTALGQNDQATMLSTIHKLHGASCYCGVPTTQRLCQEIESALKRQTPVEDLEPEILELLDELTKVESAVKQVLSQLSAEITDDQKNGLL” was “soluble”.

The record behind these values is the DeepSol protein solubility set.
